{"source": "paper PMC3164629", "key": {"[1]": {"target": "human mAb 4E10 (human)", "sequence (light, as listed by the source, chain 2 of 2, other chains not shown)": "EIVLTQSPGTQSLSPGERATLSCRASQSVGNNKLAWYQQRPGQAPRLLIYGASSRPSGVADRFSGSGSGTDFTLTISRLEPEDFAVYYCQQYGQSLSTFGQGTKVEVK", "assay": "SPR"}, "[2]": {"target": "recombinant soluble CD4 (UniProt P01730)", "assay": "SPR"}}, "data": [{"substance": "CON-S gp140CFI Env, natively deglycosylated with PNGase F 500 U per µg", "values": [{"measurement": "fold enhancement of Kd against WT glycosylated CON-S gp140", "setting": "[1]", "value": 7, "unit": "fold"}, {"measurement": "Kd", "setting": "[2]", "value": 9.4, "unit": "nM"}]}, {"substance": "HIV-1 JRFL gp140CF Env, WT glycosylated (domain or fragment)", "values": [{"measurement": "Kd", "setting": "[2]", "value": 5.7, "unit": "nM"}]}, {"substance": "HIV-1 JRFL gp140CF Env, natively deglycosylated with PNGase F 500 U per µg (domain or fragment)", "values": [{"measurement": "Kd", "setting": "[2]", "value": 35.3, "unit": "nM"}]}, {"substance": "group M consensus gp140 Env, CON-S gp140CFI, WT glycosylated", "values": [{"measurement": "Kd", "setting": "[2]", "value": 7.4, "unit": "nM"}]}]}
